Measurements: patent US20220153872A1 (MAB LEGEND BIOTECH, published 2022)

Columns and labels:
[1] = target: T1, human Factor XIa, activated form of coagulation factor XI (human, UniProt P03951 19-387; P03951 388-625); experiment: ELISA
T1 construct: also called FXIa; human FXIa

[2] = target: T1, human Factor XIa, activated form of …; experiment: SPR, BIAcore T200, antibody captured on Protein A chip, FXIa as analyte, 1:1 Langmuir fit
Protocol: (2) Sample testing conditions: The binding characteristics of FXIa and antibodies were preliminarily determined and evaluated in a manual mode. 10 nM was determined as the maximum analytical concentration of FXIa. […] During the sample analysis, the flow rate was set to be 30 μL/min, the binding time was 120 s, and the dissociation time was 600 s.
(3) Regeneration conditions: With reference to other experiments, preliminary determination and evaluation were performed in a manual mode. […] During the regeneration, the flow rate was set to be 30 μL/min, and the regeneration time was 30 s.
(4) Kinetic parameter determination: The experiment was carried out in a multi-cycle mode, in which the response signal took the analysis time as the horizontal coordinate and the response value as the vertical coordinate. The obtained data were fitted by BIAcore T200 analysis software, during which a 1:1 Langmuir binding model was used as a fitting model, so as to determine the kinetic constants such as an association rate constant, a dissociation rate constant, and an association-dissociation constant.

[3] = target: T1, human Factor XIa, activated form of …; experiment: cell-based or functional assay
human FXII = target: T2, human FXII (human, UniProt P00748 20-615); experiment: ELISA, antibody dilution series
T2 sequence (looked up): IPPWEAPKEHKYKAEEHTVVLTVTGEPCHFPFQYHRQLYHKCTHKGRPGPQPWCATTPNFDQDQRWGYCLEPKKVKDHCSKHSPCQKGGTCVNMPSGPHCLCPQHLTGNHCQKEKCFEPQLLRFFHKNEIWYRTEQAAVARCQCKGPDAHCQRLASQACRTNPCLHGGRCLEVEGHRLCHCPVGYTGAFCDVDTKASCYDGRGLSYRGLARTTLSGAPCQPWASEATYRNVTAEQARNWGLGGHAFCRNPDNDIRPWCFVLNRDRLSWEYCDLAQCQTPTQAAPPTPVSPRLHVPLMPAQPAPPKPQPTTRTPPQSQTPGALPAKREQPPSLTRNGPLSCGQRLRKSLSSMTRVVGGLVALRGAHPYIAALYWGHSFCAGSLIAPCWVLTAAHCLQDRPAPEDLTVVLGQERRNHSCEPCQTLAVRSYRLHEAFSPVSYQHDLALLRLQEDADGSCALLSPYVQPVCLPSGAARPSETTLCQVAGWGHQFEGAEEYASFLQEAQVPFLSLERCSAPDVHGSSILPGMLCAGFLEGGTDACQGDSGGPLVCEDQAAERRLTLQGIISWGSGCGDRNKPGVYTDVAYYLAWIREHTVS
Protocol: (§1) In this example, the binding ability of coagulation factors PK, PKa, FXII, FXIIa, FIX, FIXa, FX, FXa, FVIIa, and Thrombin to antibodies at a series of diluted concentrations was analyzed using ELISA.

human PK = human PK (human, UniProt P03952 20-638); experiment: ELISA, antibody dilution series
Protocol: as §1

human FIX = human FIX (human, UniProt P00740 47-461); experiment: ELISA, antibody dilution series
Protocol: as §1

human FXa = human FXa (human, UniProt P00742 41-179; P00742 235-488, limits assumed); experiment: ELISA, antibody dilution series
Protocol: as §1

human Thrombin = human Thrombin (human, UniProt P00734 328-363; P00734 364-622); experiment: ELISA, antibody dilution series
Protocol: as §1

human FX = human FX (human, UniProt P00742 41-488); experiment: ELISA, antibody dilution series
Protocol: as §1

human FVIIa = target: T3, human FVIIa (human, UniProt P08709 61-212; P08709 213-466); experiment: ELISA, antibody dilution series
T3 sequence (looked up) 1: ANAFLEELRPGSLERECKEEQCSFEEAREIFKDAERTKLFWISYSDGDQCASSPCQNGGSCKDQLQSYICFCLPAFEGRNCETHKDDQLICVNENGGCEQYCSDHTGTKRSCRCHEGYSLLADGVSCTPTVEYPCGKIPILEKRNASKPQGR
T3 sequence (looked up) 2: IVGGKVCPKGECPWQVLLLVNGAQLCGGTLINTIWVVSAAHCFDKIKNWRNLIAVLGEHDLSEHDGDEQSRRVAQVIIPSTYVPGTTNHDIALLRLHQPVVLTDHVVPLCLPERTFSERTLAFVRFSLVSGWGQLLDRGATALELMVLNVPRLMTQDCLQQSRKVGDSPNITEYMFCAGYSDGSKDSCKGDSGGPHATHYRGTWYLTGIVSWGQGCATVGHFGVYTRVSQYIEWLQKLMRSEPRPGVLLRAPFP
Protocol: as §1

human FIXa = human FIXa (human, UniProt P00740 47-191; P00740 227-461); experiment: ELISA, antibody dilution series
Protocol: as §1

EC50 [1]: 0.056 nM
Kd [2]: 0.0231 nM
koff [2]: 0.00245 s⁻¹
kon [2]: 1.06e+08 M⁻¹ s⁻¹
IC50 (nM), inhibition of human FXIa hydrolysis of S-2366 [3]: 47.3 nM
binding result (human FXII): no binding
binding result (human PK): no binding
binding result (human FIX): no binding
binding result (human FXa): no binding
binding result (human Thrombin): no binding
binding result (human FX): no binding
binding result (human FVIIa): no binding
binding result (human FIXa): no binding
B1: anti-human FXIa full-length human monoclonal antibody 14624 (antibody, IgG1, V domains shown)
VH: QVQLVQSGAEVKKPGASVKVSCKVSGYTLTELSMHWVRQAPGKGLEWMGGFDPEDGETIYAQKFQGRVTMTEDTSTDTAYMELSSLRSEDTAVYYCATDRPVRGVIPYYYYYGMDVWGQGTLVTVSS
VL: QSALTQPPSASGTPGQTVTISCSGSRSNIGSRPVNWYQHLPGTAPKLLIYIDHQRPSGVPDRFSGSKSGTSASLAISGLQSDDEADYYCAAWDDSLDAYVFGTGTKVTVL
notes: Full-length IgG1 made in CHO cells
